Patent US20240116990A1, “Compositions and Methods of Treatment Using CRRL 191” (Mayo Foundation for Medical Education and Research, priority 2022, published 2024)

How the values were obtained:
[1] = tested on: Spontaneously Hypertensive Rats (SHR); assay: Plasma cGMP in spontaneously hypertensive rats; type: in vivo, rat; details: iv infusion, FIG. 9A
Procedure: All rat experiments are conducted following the Animal Welfare Act and the protocol is approved by the Mayo Clinic Institutional Animal Care and Use Committee (IACUC). […] Rats are included only if they are deemed healthy by the Institutional Veterinarian Department. Investigators who conduct the in vivo study are not blinded to treatments, but biochemical analysis is performed by a different investigator who is blinded to treatment.
On the day of the experiment, SHR rats are anesthetized with inactin (120 mg/kg, intraperitoneal injection, Sigma, St. Louis, MO). Rats are then kept on a heating pad at 38° C. to maintain a normal body temperature for the entire study. Vascular and bladder cannulation procedures are conducted. Briefly, a polyethylene-50 (PE-50) tube catheter is placed into one jugular vein for peptide infusion and another PE-50 tube is placed into the carotid artery for blood pressure (BP) monitoring (Sonometrics, London, Ontario, Canada) and blood sampling. After instrumentation, a 15-minute equilibrium period follows, and a 30-minute pre-infusion period is performed to collect baseline urine samples.
Four blood samples are collected to determine circulating cGMP levels: at baseline, before the end of drug infusion, at the middle of the washout clearance period, and before the end of the washout clearance period. Any blood loss in the rats is replaced with an equal volume of saline. BP is monitored and recorded every 15 minutes beginning after the initiation of peptide infusion. All collected blood are stored at −80° C. until assayed.
For the biochemical analysis, plasma cGMP levels are measured with a cGMP ELISA kit (Enzo Life Sciences, Farmingdale, NY).

[2] = biological target: T1, human GC-A (human), P16066; assay: cell-based or functional assay
T1 chain: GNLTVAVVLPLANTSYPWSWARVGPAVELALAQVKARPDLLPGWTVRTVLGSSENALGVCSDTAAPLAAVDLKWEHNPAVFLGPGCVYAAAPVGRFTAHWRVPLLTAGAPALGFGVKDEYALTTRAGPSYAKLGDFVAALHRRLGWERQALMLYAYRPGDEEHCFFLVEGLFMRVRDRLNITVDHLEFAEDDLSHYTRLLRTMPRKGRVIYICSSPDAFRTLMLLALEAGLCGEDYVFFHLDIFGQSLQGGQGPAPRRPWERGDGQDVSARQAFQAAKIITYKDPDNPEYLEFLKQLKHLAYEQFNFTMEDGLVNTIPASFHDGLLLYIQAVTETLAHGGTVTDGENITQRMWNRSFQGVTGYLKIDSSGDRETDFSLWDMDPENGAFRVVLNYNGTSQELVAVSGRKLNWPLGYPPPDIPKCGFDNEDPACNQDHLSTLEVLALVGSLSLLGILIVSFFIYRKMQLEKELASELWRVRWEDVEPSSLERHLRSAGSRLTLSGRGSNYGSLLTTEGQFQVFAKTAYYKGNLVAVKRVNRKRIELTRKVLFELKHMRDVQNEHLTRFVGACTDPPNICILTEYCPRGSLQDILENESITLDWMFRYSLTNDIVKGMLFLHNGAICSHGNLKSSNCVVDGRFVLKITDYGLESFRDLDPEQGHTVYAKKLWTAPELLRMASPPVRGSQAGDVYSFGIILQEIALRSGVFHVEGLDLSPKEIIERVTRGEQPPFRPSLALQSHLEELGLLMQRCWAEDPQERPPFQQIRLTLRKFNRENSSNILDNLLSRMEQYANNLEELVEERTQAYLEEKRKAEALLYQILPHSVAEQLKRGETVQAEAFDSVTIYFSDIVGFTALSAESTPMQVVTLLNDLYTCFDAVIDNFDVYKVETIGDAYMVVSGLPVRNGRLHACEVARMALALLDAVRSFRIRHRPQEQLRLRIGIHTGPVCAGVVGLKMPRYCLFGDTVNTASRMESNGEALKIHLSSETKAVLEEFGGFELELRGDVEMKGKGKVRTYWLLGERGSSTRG

[3] = biological target: T2, extracellular domain of GC-A recombinant protein with a C-terminal His-tag (human), P16066; assay: SPR (BI-4500, 25 C); His-tagged GC-A extracellular domain immobilized on Ni-NTA chip; CRRL 191 injected at 0.125, 0.25, 0.5, 1 and 2 nM
T2 chain: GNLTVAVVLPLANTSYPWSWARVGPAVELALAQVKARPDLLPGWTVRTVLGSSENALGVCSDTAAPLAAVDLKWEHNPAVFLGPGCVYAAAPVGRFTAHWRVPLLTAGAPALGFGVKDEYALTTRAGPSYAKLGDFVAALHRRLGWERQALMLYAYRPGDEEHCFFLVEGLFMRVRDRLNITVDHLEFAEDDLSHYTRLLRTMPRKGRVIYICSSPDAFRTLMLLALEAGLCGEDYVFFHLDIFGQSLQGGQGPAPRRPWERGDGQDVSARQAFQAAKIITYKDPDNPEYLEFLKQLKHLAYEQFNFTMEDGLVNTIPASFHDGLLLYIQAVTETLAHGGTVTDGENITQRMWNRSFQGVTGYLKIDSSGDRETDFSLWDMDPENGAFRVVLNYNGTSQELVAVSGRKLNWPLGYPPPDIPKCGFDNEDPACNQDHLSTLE

[4] = biological target: T2, extracellular domain of GC-A …; assay: SPR (BI-4500), His-tagged GC-A extracellular domain on Ni-NTA chip, peptide as analyte, 25 C

Molecule	plasma cGMP levels [1]	EC50 of cGMP production, HEK293 GC-A cells, 10 min stimulation [2] [nM]	intracellular cGMP (Mean) at 10^-6 M peptide [2]	intracellular cGMP (Mean) at 10^-7 M peptide [2]	intracellular cGMP (Mean) at 10^-8 M peptide [2]	intracellular cGMP (Mean) at 10^-9 M peptide [2]	intracellular cGMP (Mean) at 10^-10 M peptide [2]	intracellular cGMP (Mean) at 10^-12 M peptide [2]	intracellular cGMP (Mean) at 10^-14 M peptide [2]	Kd [3] [nM]	Kd [4] [nM]
CC[C@H](C)[C@@H]1NC(=O)[C@H](CCCNC(=N)N)NC(=O)[C@H](CC(=O)O)NC(=O)[C@H](CCSC)NC(=O)[C@H](CCCNC(=N)N)NC(=O)CNC(=O)CNC(=O)[C@H](Cc2ccccc2)NC(=O)[C@@H](NC(=O)[C@H](CO)NC(=O)[C@H](CO)NC(=O)[C@H](CCCNC(=N)N)NC(=O)[C@H](CCCNC(=N)N)NC(=O)[C@H](CC(C)C)NC(=O)[C@@H](N)CO)CSSC[C@@H](C(=O)N[C@@H](CC(N)=O)C(=O)N[C@@H](CO)C(=O)N[C@@H](Cc2ccccc2)C(=O)N[C@@H](CCCNC(=N)N)C(=O)N[C@@H](Cc2ccc(O)cc2)C(=O)O)NC(=O)CNC(=O)[C@H](CC(C)C)NC(=O)CNC(=O)[C@H](CO)NC(=O)[C@H](CCC(N)=O)NC(=O)[C@H](C)NC(=O)CNC1=O [ANP, reference compound]	increase	–	–	–	–	–	–	–	–	–	–
RALLTAPRSLRRSSCFGHKIDRINHVSNLGCNSFRYRITAREDKQGWA (modifications not checked) [CRRL 191]	–	0.48	135	141	152	89.9	35.6	2.57	3.07	0.128	0.128
